Consider 18 sequences from the supplement of paper PMC12764529.

± gives the half width of the 95% confidence interval.

Data set [1] can be described thus: folding stability dG unfold from trypsin proteolysis; higher = more stable. The gist of the method:
(§1)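 Sequencing followed digestion of designed mini-proteins with trypsin and chymotrypsin, each at 11 concentrations in threefold dilutions together with a no-protease condition. The mini-proteins were under 80 residues, had no cysteine, sat in a PA-tagged cDNA display construct, and were kept only if AlphaFold2 dimer inter-PAE was above 15. From the counts, Bayesian fitting gave K50, and unfolding free energy was derived against a sequence-predicted unfolded-state K50 and a shared folded-state K50, per protease or combined.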

A short description of data set [2]: folding stability dG unfold (combined trypsin and chymotrypsin); higher = more stable. A digest of the protocol: as §1
The nature of data set [3]: folding stability dG unfold from chymotrypsin proteolysis; higher = more stable. A digest of the protocol: as §1

Consider “SAGMMVKVEIEFPLTLTTTEKVGTGPNGIPVFETREEIVVITFRATVPENPEEVAAAKEEAKAVAEALSSAG [r14_223_JUSTAS]”, for which the “folding stability dG unfold” value was 1.8 ± 0.042 kcal/mol in data set [1], 1.89 ± 0.2 kcal/mol in data set [2] and 2.08 ± 0.11 kcal/mol in data set [3].

Take “SAGMMYKITIKTKNGEKIEIEIPAEELENLTEEQLKELAKELAKKLEEEGIEVEKVEVKIEPVKPEELSAGG [r19_334_TrROS_Hall]”: the figures for the “folding stability dG unfold” value in data set [1], in data set [2] and in data set [3] were 3.3 ± 0.23 kcal/mol, 3.04 ± 0.13 kcal/mol and 2.93 ± 0.058 kcal/mol, respectively.

Take “SAGMNLSPEEIAERIREEAKKKYPNSEVEVRIVSQPPTTIVLEVKITIYFPEEGGSIIEEPRVITIDRLSAG [r14_187_JUSTAS]”: the “folding stability dG unfold” value worked out at 2.05 ± 0.076 kcal/mol in data set [1], 2.15 ± 0.13 kcal/mol in data set [2] and 2.17 ± 0.13 kcal/mol in data set [3].

Turning to “SAGMPAGDFEPVKVEYTIKIPILNEGGGAAAPMPIKVKVEVYRMPNGNLFIKFEIEIPGGNKIEFWFPISAG [r5_580_TrROS]”, the “folding stability dG unfold” value in data set [1] was 2.67 ± 0.28 kcal/mol; in data set [2], 3.99 ± 0.26 kcal/mol; in data set [3], 4.32 ± 0.13 kcal/mol.

For the sequence “SAGMPETITIKIRNPETGKLYEIEIEKVDGEVKVTIRDVETGKERREITMTPEEVRELLKELGFEVEEVSAG [r5_291_TrROS_Hall]”, the “folding stability dG unfold” value in data set [1] is 1.42 ± 0.049 kcal/mol; in data set [2], 2.63 ± 0.059 kcal/mol; in data set [3] it was 3.1 ± 0.056 kcal/mol.

Consider “SAGMPGKIRVEVEAEISEDNVIKLKIKIYGPDGELIDEIEAEIYLPVPPLSPSEGGGLIEAGNPELAEGSAG [r5_944_TrMRF]”, for which the “folding stability dG unfold” value turned out to be 2.54 ± 0.2 kcal/mol in data set [1], 3.13 ± 0.13 kcal/mol in data set [2] and 3.38 ± 0.092 kcal/mol in data set [3].

As to “SAGMPLRTVKVLVTINDKTEEKTLSEEELKALIESGELELLGKEPEENIVYVYKKVPPPVGSKTKKSLLSAG [r5_868_JUSTAS]”, the figures for the “folding stability dG unfold” value in data set [1], in data set [2] and in data set [3] were 0.71 ± 0.29 kcal/mol, 1.64 ± 0.27 kcal/mol and 1.94 ± 0.17 kcal/mol, respectively.

For the sequence “SAGMPPPEEVFVVKVRFDGKELTLVVRVPPGMSAEEVAKKLAEELRKKFGPDIEVEVRRVSREELLEALSAG [r5_583_TrROS_Hall]”, the “folding stability dG unfold” value was 3.66 ± 0.13 kcal/mol in data set [1], 3.23 ± 0.18 kcal/mol in data set [2] and 2.95 ± 0.12 kcal/mol in data set [3].

On to “SAGMPSFTTTSAPTEQLPELLAELATRPPNVSYTFPLPDPSRSLSLSVSADRITLTDPATGTTTTLPASAGG [r19_154_JUSTAS]”, for which the “folding stability dG unfold” value in data set [1] is -0.653 ± 0.17 kcal/mol; in data set [2], -0.779 ± 0.2 kcal/mol; in data set [3], -1.12 ± 0.51 kcal/mol.

For the sequence “SAGMPVTVTSTSDPENGSTTVPRTHPTGPVVTVTITKLPPGELRVTVDAGTTVTLYTLPPDALTTFTTPSAG [r5_14_JUSTAS]”, the “folding stability dG unfold” value in data set [1] stood at 0.51 ± 0.16 kcal/mol; in data set [2], 0.339 ± 0.11 kcal/mol; in data set [3] it was 0.13 ± 0.18 kcal/mol.

As for “SAGMSADIPVDPVTGTLTITVTDAFNPDKSTTTTVPLSELEAELGRPLTLEEVAARVEAAGVATVTVGPSAG [r14_809_JUSTAS]”, the results for the “folding stability dG unfold” value in data set [1], in data set [2] and in data set [3] were 1.46 ± 0.051 kcal/mol, 0.82 ± 0.056 kcal/mol and -0.0285 ± 0.085 kcal/mol, respectively.

“SAGMSEEERKAAEEASKPPVKVETLTVTVLVEVDGKLYLVRATITRVVLPDGSIVTELKIEIIPLEDLSAGG [r19_11_TrROS_Hall]”: the “folding stability dG unfold” value in data set [1] is 3.05 ± 0.21 kcal/mol; in data set [2], 3.88 ± 0.3 kcal/mol; in data set [3] it was 4.26 ± 0.33 kcal/mol.

“SAGMSLVPLEELARAWAEERGLPVLDVEVPESRSPATRHVTITLTLRDPATGALTTETRELVIPEEELGSAG [r5_421_JUSTAS]”: the results for the “folding stability dG unfold” value in data set [1], in data set [2] and in data set [3] were 0.585 ± 0.077 kcal/mol, 0.621 ± 0.1 kcal/mol and 0.583 ± 0.096 kcal/mol, respectively.

As to “SAGMTAEELAEELAKELEVEVTLENGEKRRVRVEVKVERLPDGTLLLTAKVENEETGETFEIKIEIKLESAG [r5_397_TrROS_Hall]”, the “folding stability dG unfold” value came out at 2.9 ± 0.13 kcal/mol in data set [1], 3.67 ± 0.33 kcal/mol in data set [2] and 4.3 ± 0.37 kcal/mol in data set [3].

For the sequence “SAGMTALFTDSSGKEVTFSHPNLELTVDPETGVVSAYEPESNLKVEVKVAPDKVTVTVYSGSSSKEIPLSAG [r5_786_JUSTAS]”, the “folding stability dG unfold” value is -0.226 ± 0.064 kcal/mol in data set [1], 0.574 ± 0.11 kcal/mol in data set [2] and 0.956 ± 0.16 kcal/mol in data set [3].

In the case of “SAGMTFKNPGSDKTLTYEPETGAITLHNGDSVSTLPLPPGTSFTVTVDPEKGVVTITVPETGATITLPLSAG [r5_858_JUSTAS]”, the “folding stability dG unfold” value in data set [1] was determined as 1.07 ± 0.028 kcal/mol; in data set [2], 0.803 ± 0.11 kcal/mol; in data set [3], 0.248 ± 0.22 kcal/mol.

“SAGMTIEELRSLPPGARVTSVEYDEETEEVTVTVERTREDGKTETLTLTFRSREELEAALKAGADRIVFSAG [r5_905_TrROS_Hall]”: the “folding stability dG unfold” value in data set [1] came out at 1.731 ± 0.017 kcal/mol; in data set [2] it was 1.54 ± 0.052 kcal/mol; in data set [3] it was 1.16 ± 0.059 kcal/mol.

For the sequence “SAGMTIELPNATVTLERVPVPATGESAWVVTVTARHPDGSTPTVVAVFPEDTPPEDVLAAALALAEELESAG [r5_704_TrMRF]”, the figures for the “folding stability dG unfold” value in data set [1], in data set [2] and in data set [3] were 4.75 ± 0.44 kcal/mol, 4.78 ± 0.16 kcal/mol and 4.62 ± 0.075 kcal/mol, respectively.
